One series concerns C179DDD (Homo sapiens). Briefly: EMSA. The settings on record: 0.66 nM RNA; yeast tRNA 0.1 mg/ml; 10 mM Tris-HCl pH 7, 30 mM NaCl, 2.5 mM MgCl2, 0.1% IGEPAL CA-630, 0.1 mg/ml yeast tRNA, 1.5% RNaseOUT, 0.2 mM EDTA, 0.2 mM DTT, 30 C 20 min; 0.8% agarose/TBE …. In general terms: In EMSA bound probe runs differently from free probe, usually more slowly.
In another series the test system is C179Δtail (Homo sapiens). Briefly: EMSA. To be noted: 0.66 nM RNA; yeast tRNA 0.1 mg/ml; 10 mM Tris-HCl pH 7, 30 mM NaCl, 2.5 mM MgCl2, 0.1% IGEPAL CA-630, 0.1 mg/ml yeast tRNA, 1.5% RNaseOUT, 0.2 mM EDTA, 0.2 mM DTT, 30 C 20 min; 0.8% agarose/TBE ….

For Xist repeat E RNA probe, the binding signal (% probe shifted at 5 µM protein) was determined as 54 in the series on C179DDD (Homo sapiens) and 2 in the series on C179Δtail (Homo sapiens).

These data come from article PMC12862363, “AURKB-driven dissolution of CIZ1–RNA assemblies from the inactive X chromosome in mitosis” (Nucleic Acids Research, 2026).
